Assay results from patent US12325747 (University of Texas, dated 2025).
Where two headings read alike, the source gives them in different places.

B1: ADI-20803 (antibody, human IgG1, V domains shown)
VH: QVQLVQSGAEVKKPGSSVKVSCKASGGTFRLYAISWVRQAPGQGLEWMGSIIPGFGSANYAQKFQGRVTITADESTSTAYMELSSLRSEDTAVYYCARDGGGGTSAYSFDPWGQGTLVTVSS
VL: EIVLTQSPATLSLSPGERATLSCRASQSVSSYLAWYQQKPGQAPRLLIYDASNRATGIPARFSGSGSGTDFTLTISSLEPEDFAVYYCQQSINFPYTFGGGTKVEIK
notes: Tested as IgG; also called PDL1-1-12; PLD1-1-12
B2: ADI-20803 Fab (Fab, V domains shown)
VH: B1 VH
VL: B1 VL
notes: also called Fab of ADI-20803
B3: ADI-20227 (antibody, human IgG1, V domains shown)
VH: QVQLQESGPGLVKPSQTLSLTCTVSGGSIVSGGLYWSWIRQHPGKGLEWIGYIYYAGVTYYNPSLKSRVTISVDTSKNQFSLKLSSVTAADTAVYYCARGPRMGLAGMDVWGQGTTVTVSS
VL: DIQMTQSPSSVSASVGDRVTITCRASQGISSWLAWYQQKPGKAPKLLIYAASSLQSGVPSRFSGSGSGTDFTLTISSLQPEDFATYYCQQANSFPITFGGGTKVEIK
notes: Tested as IgG; also called PD-L1-C1-2; clone family cLC
B4: ADI-20227 Fab (Fab, V domains shown)
VH: B3 VH
VL: B3 VL
B5: ADI-20799 (antibody, human IgG1, V domains shown)
VH: QVQLVQSGAEVKKPGASVKVSCKASGYTFTGVYMHWVRQAPGQGLEWMGGIFPIGGTANYAQKFQGRVTITADESTSTAYMELSSLRSEDTAVYYCARDRTSGALYWGQGTLVTVSS
VL: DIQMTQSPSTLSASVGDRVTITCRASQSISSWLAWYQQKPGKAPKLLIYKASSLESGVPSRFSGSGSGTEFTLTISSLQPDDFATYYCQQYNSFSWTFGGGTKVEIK
B6: ADI-16403 (antibody, human IgG1, V domains shown)
VH: EVQLVESGGGLVQPGGSLRLSCAASGFTFSSYWMSWVRQAPGKGLEWVANIKSDGSEKYYVDSVKGRFTISRDNAKNSLYLQMNSLRAEDTAVYYCARVTYWADYMDVWGKGTTVTVSS
VL: DIQMTQSPSTLSASVGDRVTITCRASQSISSWLAWYQQKPGKAPKLLIYKASSLESGVPSRFSGSGSGTEFTLTISSLQPDDFATYYCQQSGSLPPTFGGGTKVEIK
notes: Tested as IgG; also called PD-L1-31; clone family 35
B7: ADI-16403 Fab (Fab, V domains shown)
VH: B6 VH
VL: B6 VL
notes: also called Fab of ADI-16403

Key:
PD-L1 on CHO-PD-L1 cells [1] = target: T1, PD-L1 on CHO-PD-L1 cells (human, UniProt Q9NZQ7 19-290); assay: cell-based or functional assay
Human PD-L1-HIS [2] = target: T2, Human PD-L1-HIS (human, UniProt Q9NZQ7 19-238); assay: ForteBio Octet BLI; IgG on AHQ sensors, 100 nM antigen; column head says Avid
T2 construct: also called HIS-tagged protein (human PD-L1)
Procedure: (§1) ForteBio K_D measurements—ForteBio affinity measurements were performed on an Octet RED384 generally as previously described (see, e.g., Estep et al., Mabs 5(2), 270-278 (2013)). Briefly, ForteBio affinity measurements were performed by loading IgGs on-line onto AHQ sensors. Sensors were equilibrated off-line in assay buffer for 30 min and then monitored on-line for 60 seconds for baseline establishment. Sensors with loaded IgGs were exposed to 100 nM antigen for 3 minutes, and afterwards were transferred to assay buffer for 3 min for off-rate measurement. For monovalent affinity assessment Fabs were used instead of IgGs. For this assessment the unbiotinylated Fc fusion antigen was loaded on-line onto the AHQ sensors. Sensors were equilibrated off-line in assay buffer for 30 min and then monitored on-line for 60 seconds for baseline establishment. Sensors with loaded antigen were exposed to 100 nM Fab for 3 minutes, and afterwards they were transferred to assay buffer for 3 min for off-rate measurement. All kinetics were analyzed using the 1:1 binding model.

PD-L1 on CHO-PD-L1 cells [3] = target: T1, PD-L1 on CHO-PD-L1 cells; assay: upper panel, MFI against Ab (nM): flow cytometry on CHO cells with PD-L1, anti-human IgG1-PE secondary. The panel has no title; human PD-L1 follows from paragraph 175 (all three bind human PD-L1)
Procedure: (§2) Antibody Activity. Varying concentrations of PD-L1 antibodies, with human IgG1 backbones, were added to CHO cells expressing either human or murine PD-L1 (CHO-PD-L1 cells). Binding was detected by addition of anti-human IgG1 secondary antibody conjugated to phycoerythrin. FACS analysis was performed, detecting phycoerythrin to determine fluorescence activity at a variety of antibody concentrations. EC50 was calculated using GraphPad Prism® software.

Human PD-L1-HIS [4] = target: T2, Human PD-L1-HIS; assay: Octet tandem competition on HIS-tagged human PD-L1; competitor Durvalumab
Procedure: (§3) Epitope binning of PD-L1 antibodies. Binding specificity of a variety of PD-L1 antibodies were compared using a binding competition assay conducted using the ForteBio Octet® platform. Target HIS-tagged protein (human PD-L1) is loaded onto pre-charged Nickel NTA Biosensors at 1 μg/mL. The first Ab1 is saturated on the target-loaded biosensor at 100 nM, and a reference (bufer only) well is included to determine maximal Ab2 binding signal. The second Ab2 is screened for binding signal also at 100 nM, and Ab1 is included to determine background self-blocking signal. Data Analysis HT 9.0 software is used to generate a matrix of raw signal response of Ab2 binding that is then transformed to be expressed as a percentage of the unblocked Ab2 binding signal. Less than 15% response is considered competitive blocking.

Human PD-L1-HIS [5] = target: T2, Human PD-L1-HIS; assay: Octet tandem competition on HIS-tagged human PD-L1; competitor Avelumab
Procedure: as §3

Mouse PD-L1-Fc = target: T3, Mouse PD-L1-Fc (mouse, UniProt Q9EP73 19-238, limits assumed); assay: ForteBio Octet BLI; IgG on AHQ sensors, 100 nM antigen; avid
T3 construct: not shown: Fc part, not described
Procedure: as §1

Cyno PD-L1-Fc = Cyno PD-L1-Fc (cyno, UniProt G7PSE7 19-238); assay: as above
Procedure: as §1

Human PD-L1-Fc [6] = target: T4, Human PD-L1-Fc (human, UniProt Q9NZQ7 19-238); assay: as above
T4 construct: also called Fc fusion antigen; not shown: Fc part, not described
Procedure: as §1

Human PD-L1-HIS [7] = target: T2, Human PD-L1-HIS; assay: Octet tandem competition on HIS-tagged human PD-L1; competitor Atezolizumab
Procedure: as §3

Human PD-L1-Fc [8] = target: T4, Human PD-L1-Fc; assay: ForteBio Octet BLI; Fc fusion antigen on AHQ sensors, 100 nM Fab; monovalent
Procedure: as §1

Human PD-L1-Fc [9] = target: T4, Human PD-L1-Fc; assay: ForteBio Octet BLI (row ForteBio-KD); antigen and unit inferred, taken from Table 5
mouse PD-L1 protein [10] = target: T5, mouse PD-L1 protein (mouse, UniProt Q9EP73 19-238, limits assumed); assay: lower panel, MFI against Ab (nM): flow cytometry on CHO cells with murine PD-L1, anti-human IgG1-PE secondary. The panel has no title; murine PD-L1 follows from paragraph 175 (only ADI-20227 binds murine PD-L1 well)
T5 construct: also called murine PD-L1
Procedure: as §2

PD-L1 on CHO-PD-L1 cells [11] = target: T1, PD-L1 on CHO-PD-L1 cells; assay: cell-based or functional assay; remark: listed apart in the source
PD-L1 on CHO-PD-L1 cells [12] = target: T1, PD-L1 on CHO-PD-L1 cells; assay: cell-based or functional assay; remark: listed apart in the source
mouse PD-L1 protein [13] = target: T5, mouse PD-L1 protein; assay: lower panel, MFI against Ab (nM): flow cytometry on CHO cells with murine PD-L1. The panel has no title; murine PD-L1 follows from paragraph 175
Procedure: as §2

T3 sequence (Q9EP73 19-238 limits assumed): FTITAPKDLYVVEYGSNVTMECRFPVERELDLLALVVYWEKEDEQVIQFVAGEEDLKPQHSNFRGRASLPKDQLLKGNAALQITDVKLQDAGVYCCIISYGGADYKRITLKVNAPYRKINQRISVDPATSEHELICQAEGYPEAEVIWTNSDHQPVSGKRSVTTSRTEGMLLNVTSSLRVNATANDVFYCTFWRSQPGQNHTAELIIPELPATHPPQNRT
Chain of Cyno PD-L1-Fc (G7PSE7 entry or part of it limits assumed): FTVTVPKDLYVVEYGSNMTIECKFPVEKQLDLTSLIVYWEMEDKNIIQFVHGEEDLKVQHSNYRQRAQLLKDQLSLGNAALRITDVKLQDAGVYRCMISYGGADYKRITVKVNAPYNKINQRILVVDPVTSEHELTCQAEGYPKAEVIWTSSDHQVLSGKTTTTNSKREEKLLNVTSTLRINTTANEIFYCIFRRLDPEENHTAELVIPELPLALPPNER
T1 sequence (Q9NZQ7 19-290 limits assumed): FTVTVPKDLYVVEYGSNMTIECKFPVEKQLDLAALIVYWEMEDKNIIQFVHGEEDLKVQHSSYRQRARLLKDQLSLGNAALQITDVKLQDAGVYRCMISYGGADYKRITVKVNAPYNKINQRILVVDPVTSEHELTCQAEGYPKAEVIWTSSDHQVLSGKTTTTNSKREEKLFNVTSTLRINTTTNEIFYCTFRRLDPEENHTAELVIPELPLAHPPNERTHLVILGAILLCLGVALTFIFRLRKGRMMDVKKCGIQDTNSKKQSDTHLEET
T4 sequence (Q9NZQ7 19-238 limits assumed): as the sequence (G7PSE7 entry or part of it limits assumed) above, with T33A, S34A, N62S, Q68R, R82Q, L173F, A185T, I192T, L215H counted along it
T2 sequence (Q9NZQ7 19-238 limits assumed): as the sequence (G7PSE7 entry or part of it limits assumed) above, with T33A, S34A, N62S, Q68R, R82Q, L173F, A185T, I192T, L215H counted along it
T5 sequence (Q9EP73 19-238 limits assumed): as the sequence (Q9EP73 19-238 limits assumed) above

Row | Binder | EC50 (PD-L1 on CHO-PD-L1 cells [3]) | percentage of the unblocked Ab2 binding signal (Human PD-L1-HIS [4]) | percentage of the unblocked Ab2 binding signal (Human PD-L1-HIS [5]) | Kd (Cyno PD-L1-Fc) | Kd (Human PD-L1-Fc [6]) | percentage of the unblocked Ab2 binding signal (Human PD-L1-HIS [7]) | Kd (Human PD-L1-Fc [8]) | further results
1 | B1 | 0.7 nM | 2.38% | 3.14% | 0.196 nM | 0.188 nM | 1.86% | – | EC50 (read off the curve) (PD-L1 on CHO-PD-L1 cells [1]): ~3 nM; Kd (Human PD-L1-HIS [2]): 0.0092 nM; Kd (Mouse PD-L1-Fc): 5.65 nM
2 | B2 | – | – | – | – | – | – | 0.226 nM | –
3 | B3 | 1.12 nM | 0.65% | 0.37% | 0.192 nM | 0.179 nM | -0.52% | – | Kd (Human PD-L1-Fc [9]): 0.179 nM; Kd (Mouse PD-L1-Fc): 0.101 nM; EC50 (mouse PD-L1 protein [10]): 1.13 nM; EC50 for restoration of PD-L1:PD-1 repressed Jurkat T cell activity (row label IC50) (PD-L1 on CHO-PD-L1 cells [11]): 0.295 nM
4 | B4 | – | – | – | – | – | – | 0.915 nM | –
5 | B5 | 1.31 nM | – | – | – | – | – | – | EC50 (read off the curve) (PD-L1 on CHO-PD-L1 cells [12]): ~0.5 nM; binding result (mouse PD-L1 protein [13]): no binding (tested: about 700 nM)
6 | B6 | – | 1.03% | 2.39% | 0.792 nM | 0.317 nM | 0.75% | – | Kd (Human PD-L1-HIS [2]): 0.328 nM; EC50 (read off the curve) (PD-L1 on CHO-PD-L1 cells [12]): ~2 nM; binding result (Mouse PD-L1-Fc): no binding (tested: 100 nM)
7 | B7 | – | – | – | – | – | – | 0.935 nM | –
